Reference: paper PMC10786891, “Massively parallel profiling of RNA-targeting CRISPR-Cas13d”

T1: EsCas13d, nuclease-dead (Eubacterium siraeum, UniProt B0MS50, R295A;H300A;R849A;H854A)
T1 sequence: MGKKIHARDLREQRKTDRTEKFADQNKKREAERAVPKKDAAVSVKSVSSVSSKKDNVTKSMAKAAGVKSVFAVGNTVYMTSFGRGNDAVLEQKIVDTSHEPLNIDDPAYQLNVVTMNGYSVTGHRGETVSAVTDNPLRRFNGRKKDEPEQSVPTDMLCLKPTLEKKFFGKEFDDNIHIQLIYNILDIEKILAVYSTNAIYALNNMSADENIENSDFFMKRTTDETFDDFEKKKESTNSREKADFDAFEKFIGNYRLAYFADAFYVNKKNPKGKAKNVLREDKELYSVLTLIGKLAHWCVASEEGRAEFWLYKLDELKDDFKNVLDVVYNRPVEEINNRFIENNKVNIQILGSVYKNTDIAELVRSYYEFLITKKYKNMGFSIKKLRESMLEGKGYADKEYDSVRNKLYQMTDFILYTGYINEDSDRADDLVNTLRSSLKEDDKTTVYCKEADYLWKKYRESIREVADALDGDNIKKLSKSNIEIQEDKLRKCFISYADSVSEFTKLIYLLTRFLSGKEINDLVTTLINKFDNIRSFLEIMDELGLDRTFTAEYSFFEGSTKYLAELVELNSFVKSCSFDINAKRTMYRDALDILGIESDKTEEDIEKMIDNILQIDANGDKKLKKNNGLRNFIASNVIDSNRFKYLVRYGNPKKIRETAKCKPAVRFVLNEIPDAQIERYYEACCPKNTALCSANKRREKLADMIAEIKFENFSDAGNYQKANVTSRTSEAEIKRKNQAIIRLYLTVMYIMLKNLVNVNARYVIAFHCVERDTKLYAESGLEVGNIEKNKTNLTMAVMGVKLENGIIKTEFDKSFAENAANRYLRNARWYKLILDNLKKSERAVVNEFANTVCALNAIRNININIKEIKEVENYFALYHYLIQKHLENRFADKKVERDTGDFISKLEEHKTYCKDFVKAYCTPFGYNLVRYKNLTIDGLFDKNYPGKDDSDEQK

B1: target 2 MT 5'PFS CAG 3'PFS ACC (mixed)
RNA 1: CACCCGUGCAAAAUUGCAGGGGUCUAAAACCUUCUCCAAAUUGUUUCAUCCU
RNA 2: GGGAAUGGAUCCACAUCUACGAAUUCCAGAGGAUGAAACAAUUUGGAGAAGACCAGAUCGGAAGAGCACACGU
B2: target 2 MT 5'PFS GAU 3'PFS UCC (mixed)
RNA 1: CACCCGUGCAAAAUUGCAGGGGUCUAAAACCUUCUCCAAAUUGUUUCAUCCU
RNA 2: GGGAAUGGAUCCACAUCUACGAAUUCGAUAGGAUGAAACAAUUUGGAGAAGUCCAGAUCGGAAGAGCACACGU
B3: target 2 MT 5'PFS GAU 3'PFS UCG (mixed)
RNA 1: CACCCGUGCAAAAUUGCAGGGGUCUAAAACCUUCUCCAAAUUGUUUCAUCCU
RNA 2: GGGAAUGGAUCCACAUCUACGAAUUCGAUAGGAUGAAACAAUUUGGAGAAGUCGAGAUCGGAAGAGCACACGU
B4: target 2 MT 5'PFS AUU 3'PFS UAA (mixed)
RNA 1: CACCCGUGCAAAAUUGCAGGGGUCUAAAACCUUCUCCAAAUUGUUUCAUCCU
RNA 2: GGGAAUGGAUCCACAUCUACGAAUUCAUUAGGAUGAAACAAUUUGGAGAAGUAAAGAUCGGAAGAGCACACGU
B5: target 2 MT 5'PFS ACA 3'PFS AUA (mixed)
RNA 1: CACCCGUGCAAAAUUGCAGGGGUCUAAAACCUUCUCCAAAUUGUUUCAUCCU
RNA 2: GGGAAUGGAUCCACAUCUACGAAUUCACAAGGAUGAAACAAUUUGGAGAAGAUAAGAUCGGAAGAGCACACGU
B6: target 2 MT 5'PFS ACA 3'PFS AUC (mixed)
RNA 1: CACCCGUGCAAAAUUGCAGGGGUCUAAAACCUUCUCCAAAUUGUUUCAUCCU
RNA 2: GGGAAUGGAUCCACAUCUACGAAUUCACAAGGAUGAAACAAUUUGGAGAAGAUCAGAUCGGAAGAGCACACGU
B7: target 2 MT 5'PFS CAC 3'PFS ACA (mixed)
RNA 1: CACCCGUGCAAAAUUGCAGGGGUCUAAAACCUUCUCCAAAUUGUUUCAUCCU
RNA 2: GGGAAUGGAUCCACAUCUACGAAUUCCACAGGAUGAAACAAUUUGGAGAAGACAAGAUCGGAAGAGCACACGU
B8: target 2 MT 5'PFS UAU 3'PFS AGA (mixed)
RNA 1: CACCCGUGCAAAAUUGCAGGGGUCUAAAACCUUCUCCAAAUUGUUUCAUCCU
RNA 2: GGGAAUGGAUCCACAUCUACGAAUUCUAUAGGAUGAAACAAUUUGGAGAAGAGAAGAUCGGAAGAGCACACGU
B9: target 2 MT 5'PFS AAG 3'PFS ACG (mixed)
RNA 1: CACCCGUGCAAAAUUGCAGGGGUCUAAAACCUUCUCCAAAUUGUUUCAUCCU
RNA 2: GGGAAUGGAUCCACAUCUACGAAUUCAAGAGGAUGAAACAAUUUGGAGAAGACGAGAUCGGAAGAGCACACGU
B10: target 2 MT 5'PFS CAC 3'PFS ACG (mixed)
RNA 1: CACCCGUGCAAAAUUGCAGGGGUCUAAAACCUUCUCCAAAUUGUUUCAUCCU
RNA 2: GGGAAUGGAUCCACAUCUACGAAUUCCACAGGAUGAAACAAUUUGGAGAAGACGAGAUCGGAAGAGCACACGU
B11: target 2 MT 5'PFS UAU 3'PFS CGU (mixed)
RNA 1: CACCCGUGCAAAAUUGCAGGGGUCUAAAACCUUCUCCAAAUUGUUUCAUCCU
RNA 2: GGGAAUGGAUCCACAUCUACGAAUUCUAUAGGAUGAAACAAUUUGGAGAAGCGUAGAUCGGAAGAGCACACGU
B12: target 2 MT 5'PFS CAC 3'PFS ACU (mixed)
RNA 1: CACCCGUGCAAAAUUGCAGGGGUCUAAAACCUUCUCCAAAUUGUUUCAUCCU
RNA 2: GGGAAUGGAUCCACAUCUACGAAUUCCACAGGAUGAAACAAUUUGGAGAAGACUAGAUCGGAAGAGCACACGU
B13: target 2 MT 5'PFS GAU 3'PFS UCA (mixed)
RNA 1: CACCCGUGCAAAAUUGCAGGGGUCUAAAACCUUCUCCAAAUUGUUUCAUCCU
RNA 2: GGGAAUGGAUCCACAUCUACGAAUUCGAUAGGAUGAAACAAUUUGGAGAAGUCAAGAUCGGAAGAGCACACGU
B14: target 2 MT 5'PFS UAU 3'PFS AGC (mixed)
RNA 1: CACCCGUGCAAAAUUGCAGGGGUCUAAAACCUUCUCCAAAUUGUUUCAUCCU
RNA 2: GGGAAUGGAUCCACAUCUACGAAUUCUAUAGGAUGAAACAAUUUGGAGAAGAGCAGAUCGGAAGAGCACACGU
B15: target 2 MT 5'PFS UUA 3'PFS UGC (mixed)
RNA 1: CACCCGUGCAAAAUUGCAGGGGUCUAAAACCUUCUCCAAAUUGUUUCAUCCU
RNA 2: GGGAAUGGAUCCACAUCUACGAAUUCUUAAGGAUGAAACAAUUUGGAGAAGUGCAGAUCGGAAGAGCACACGU
B16: target 2 MT 5'PFS UUA 3'PFS UGU (mixed)
RNA 1: CACCCGUGCAAAAUUGCAGGGGUCUAAAACCUUCUCCAAAUUGUUUCAUCCU
RNA 2: GGGAAUGGAUCCACAUCUACGAAUUCUUAAGGAUGAAACAAUUUGGAGAAGUGUAGAUCGGAAGAGCACACGU
B17: target 2 MT 5'PFS UAU 3'PFS GCC (mixed)
RNA 1: CACCCGUGCAAAAUUGCAGGGGUCUAAAACCUUCUCCAAAUUGUUUCAUCCU
RNA 2: GGGAAUGGAUCCACAUCUACGAAUUCUAUAGGAUGAAACAAUUUGGAGAAGGCCAGAUCGGAAGAGCACACGU
B18: target 2 MT 5'PFS AAG 3'PFS ACC (mixed)
RNA 1: CACCCGUGCAAAAUUGCAGGGGUCUAAAACCUUCUCCAAAUUGUUUCAUCCU
RNA 2: GGGAAUGGAUCCACAUCUACGAAUUCAAGAGGAUGAAACAAUUUGGAGAAGACCAGAUCGGAAGAGCACACGU
B19: target 2 MT 5'PFS GCA 3'PFS UGU (mixed)
RNA 1: CACCCGUGCAAAAUUGCAGGGGUCUAAAACCUUCUCCAAAUUGUUUCAUCCU
RNA 2: GGGAAUGGAUCCACAUCUACGAAUUCGCAAGGAUGAAACAAUUUGGAGAAGUGUAGAUCGGAAGAGCACACGU
B20: target 2 MT 5'PFS AAG 3'PFS ACU (mixed)
RNA 1: CACCCGUGCAAAAUUGCAGGGGUCUAAAACCUUCUCCAAAUUGUUUCAUCCU
RNA 2: GGGAAUGGAUCCACAUCUACGAAUUCAAGAGGAUGAAACAAUUUGGAGAAGACUAGAUCGGAAGAGCACACGU
B21: target 2 MT 5'PFS AAG 3'PFS ACA (mixed)
RNA 1: CACCCGUGCAAAAUUGCAGGGGUCUAAAACCUUCUCCAAAUUGUUUCAUCCU
RNA 2: GGGAAUGGAUCCACAUCUACGAAUUCAAGAGGAUGAAACAAUUUGGAGAAGACAAGAUCGGAAGAGCACACGU
B22: target 1 C2G,G17C (mixed)
RNA 1: CACCCGUGCAAAAAUGCAGGGGUCUAAAACUGAGCGGAUAACCUCUCUAUGG
RNA 2: GGGAAUGGAUCCACAUCUACGAAUUCGUACCAUACAGAGGUUAUCCGCUGACCGAGAUCGGAAGAGCACACGU
B23: target 1 A1U,C7G (mixed)
RNA 1: CACCCGUGCAAAAAUGCAGGGGUCUAAAACUGAGCGGAUAACCUCUCUAUGG
RNA 2: GGGAAUGGAUCCACAUCUACGAAUUCGUACCAUAGAGAGGUUAUGCGCUCUCCGAGAUCGGAAGAGCACACGU
B24: target 1 U11A,A14G (mixed)
RNA 1: CACCCGUGCAAAAAUGCAGGGGUCUAAAACUGAGCGGAUAACCUCUCUAUGG
RNA 2: GGGAAUGGAUCCACAUCUACGAAUUCGUACCAUAGAGGGGAUAUCCGCUCACCGAGAUCGGAAGAGCACACGU

Target: T1, EsCas13d, nuclease-dead
Assay: crRNA (strand 1, pre-loaded); Mg2+; 40 mM Tris-HCl pH 7.5, 150 mM NaCl, 6 mM MgCl2, 1 mM DTT, 0.1% Tween-20, 0.2 mg/ml BSA; 25 C; 10 min per concentration, then washed
Conditions: tags: His6-TwinStrep-SUMO cleaved; N-terminal SNAP kept (SNAP-Surface 488); label: 3' end held by stalled T7 RNA polymerase

| Binder | Kd |
| --- | --- |
| B1 | 5.5 ± 1.1 nM |
| B2 | ~80 nM |
| B3 | 15.2 ± 1.5 nM |
| B4 | 5.4 ± 0.8 nM |
| B5 | 5.7 ± 1.1 nM |
| B6 | 6.2 ± 1.3 nM |
| B7 | 2.5 ± 0.6 nM |
| B8 | 21.1 ± 2.7 nM |
| B9 | 5.1 ± 0.9 nM |
| B10 | 2.8 ± 0.8 nM |
| B11 | 15.6 ± 1.8 nM |
| B12 | 2.7 ± 1.1 nM |
| B13 | 21 ± 7 nM |
| B14 | 21 ± 2.4 nM |
| B15 | 33 ± 9 nM |
| B16 | 23.1 ± 3 nM |
| B17 | 43 ± 20 nM |
| B18 | ~27 nM |
| B19 | 25 ± 5 nM |
| B20 | 9 ± 1.3 nM |
| B21 | 5 ± 0.9 nM |
| B22 | 50 ± 6 nM |
| B23 | 9.9 ± 0.8 nM |
| B24 | 43 ± 4 nM |
